Results as given in patent US20240301063A1 (SHANDONG NEW TIME PHARMACEUTICAL, published 2024).

Legend:
[1] = target: T1, cynomolgus monkey CD3 on cynomolgus monkey T cells (cynomolgus monkey, UniProt Q95LI5 22-198; Q95LI8 22-171; Q95LI7 23-181); test: flow cytometry on cynomolgus monkey T cells
T1 construct: Native CD3 on T cells
Description: Centrifuge to remove supernatant, wash the plate twice with 1% DPBS, add 100 μl 1% DPBS to each well for resuspension, and detect the signal intensity by flow cytometry.

[2] = target: T2, human BCMA on BCMA positive cells (human, UniProt Q02223 1-184); test: cell-based or functional assay
T2 sequence (looked up): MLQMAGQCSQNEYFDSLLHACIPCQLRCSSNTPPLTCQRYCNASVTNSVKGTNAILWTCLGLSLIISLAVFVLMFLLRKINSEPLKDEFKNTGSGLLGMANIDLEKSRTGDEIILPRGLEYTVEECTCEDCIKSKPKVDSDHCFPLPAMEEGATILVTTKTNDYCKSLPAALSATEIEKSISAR

T1 sequence (Q95LI5 22-198 limits assumed, chain 1 of 3): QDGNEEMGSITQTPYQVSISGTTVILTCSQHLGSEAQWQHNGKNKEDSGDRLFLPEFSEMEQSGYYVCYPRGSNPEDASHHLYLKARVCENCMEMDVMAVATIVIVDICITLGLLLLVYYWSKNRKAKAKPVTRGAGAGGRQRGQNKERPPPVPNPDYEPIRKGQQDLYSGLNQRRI
T1 sequence (Q95LI8 22-171 limits assumed, chain 2 of 3): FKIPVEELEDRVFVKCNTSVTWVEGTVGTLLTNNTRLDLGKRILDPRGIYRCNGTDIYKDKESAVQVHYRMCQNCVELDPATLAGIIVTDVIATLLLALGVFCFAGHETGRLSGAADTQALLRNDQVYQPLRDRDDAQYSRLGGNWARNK
T1 sequence (Q95LI7 23-181 limits assumed, chain 3 of 3): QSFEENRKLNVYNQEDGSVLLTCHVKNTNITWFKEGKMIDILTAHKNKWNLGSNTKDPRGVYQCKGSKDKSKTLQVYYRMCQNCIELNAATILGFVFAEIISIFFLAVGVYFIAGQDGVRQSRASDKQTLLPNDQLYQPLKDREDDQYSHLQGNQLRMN

B1: bispecific antibody AP163 (bispecific antibody)
chain: QVQLVQSGAEVKKPGSSVKVSCKASGGTFSNYWMHWVRQAPGQGLEWMGATYRGHSDTYYNQKFKGRVTITADKSTSTAYMELSSLRSEDTAVYYCARGAIYDGYDVLDNWGQGTLVTVSSGGGGSGGGGSGGGGSDIQMTQSPSSLSASVGDRVTITCSASQDISNYLNWYQQKPGKAPKLLIYYTSNLHSGVPSRFSGSGSGTDFTLTISSLQPEDFATYYCQQYRKLPWTFGQGTKLEIKGGGGGGSGGGGSGGGGSSSSSKAPPPSEVQLLESGGGLVQPGGSLKLSCAASGFTFNTYAMNWVRQAPGKGLEWVARIRSKYNNYATYYADSVKDRFTISRDDSKNTAYLQMNNLKTEDTAVYYCVRHGNFGNSYVSWFAYWGQGTLVTVSSGGGGSGGGGSGGGGSELVVTQEPSLTVSPGGTVTLTCRSSTGAVTTSNYANWVQQKPGQAPRGLIGGTNKRAPGTPARFSGSLLGGKAALTLSGVQPEDEAEYYCALWYSNLWVFGGGTKLTVLDKTHTCPPCPAPEAAGGPSVFLFPPKPKDQLMISRTPEVTCVVVDVSHEDPEVKFNWYVDGVEVHNAKTKPREEQYASTYRVVSVLTVLHQDWLNGKEYKCKVSNKALPASIEKTISKAKGQPREPQVYTLPPSRDELTKNQVSLTCLVKGFYPSDIAVEWESNGQPENNYKTTPPVLDSDGSFFLYSKLTVDKSRWQQGNVFSCSVLHEALHNHYTQKSLSLSPG
notes: human IgG1 Fc with L234A, L235A, T250Q, N297A, P331S, M428L and K447 deleted (EU); also called anti-BCMA×CD3 bispecific antibody
binding result [1]: binds
EC50 of activation of NFAT-Jurkat reporter cells (luciferase) in the presence of H929 cells [2]: 3.16 ng/mL
EC50 of cynomolgus monkey T cells killing NCI-H929 tumor cells mediated by AP163 [2]: 0.278 pM
EC50 of human T cells killing NCI-H929 tumor cells mediated by AP163 [2]: 0.239 pM
